How the values were obtained:
[1] = biological target: the molecule itself; experiment: crystal structure; [4Fe-4S]-ScNsrR dimer complexed with a 23 bp hmpA1 operator dsDNA fragment; 3.0 Å; crystallised anaerobically; space group P6_(5)
[4Fe-4S]-NsrR (ScNsrR) [2] = biological target: T1, [4Fe-4S]-NsrR (ScNsrR) (Streptomyces coelicolor, UniProt Q9L132 1-148); experiment: X-ray crystallography; [4Fe-4S] cluster; EMSA: 10 mM Tris, 54 mM KCl, 0.3% glycerol, 1.32 mM GSH, pH 7.5, on ice, ~4 nM DNA, up to ~20-fold molar excess [4Fe-4S] NsrR. Crystal complex: 50 mM Tris pH 8.0, 500 mM NaCl, 5% glycerol, 20 C, anaerobic; grown in PEG, 30 mM MgCl2, 30 mM CaCl2, MOPS/HEPES pH 8.0; conditions: protein: recombinant; chain copies: 2; blunt
T1 sequence: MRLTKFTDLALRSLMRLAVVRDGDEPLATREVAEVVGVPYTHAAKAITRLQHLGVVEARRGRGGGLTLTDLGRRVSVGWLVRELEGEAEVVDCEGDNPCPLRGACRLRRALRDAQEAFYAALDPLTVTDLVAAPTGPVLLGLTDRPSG

[4Fe-4S]-NsrR (ScNsrR) [3] = biological target: T1, [4Fe-4S]-NsrR (ScNsrR); experiment: EMSA; [4Fe-4S] cluster; EMSA: 10 mM Tris, 54 mM KCl, 0.3% glycerol, 1.32 mM GSH, pH 7.5, on ice, ~4 nM DNA, up to ~20-fold molar excess [4Fe-4S] NsrR. Crystal complex: 50 mM Tris pH 8.0, 500 mM NaCl, 5% glycerol, 20 C, anaerobic; grown in PEG, 30 mM MgCl2, 30 mM CaCl2, MOPS/HEPES pH 8.0; conditions: protein: recombinant; chain copies: 2; label: 6-FAM (from PCR primers); blunt
[4Fe-4S]-NsrR (ScNsrR) [4] = biological target: T1, [4Fe-4S]-NsrR (ScNsrR); experiment: EMSA; [4Fe-4S] cluster; no clear difference from wild type; EMSA: 10 mM Tris, 54 mM KCl, 0.3% glycerol, 1.32 mM GSH, pH 7.5, on ice, ~4 nM DNA, up to ~20-fold molar excess [4Fe-4S] NsrR. Crystal complex: 50 mM Tris pH 8.0, 500 mM NaCl, 5% glycerol, 20 C, anaerobic; grown in PEG, 30 mM MgCl2, 30 mM CaCl2, MOPS/HEPES pH 8.0; conditions: protein: recombinant; chain copies: 2; label: 6-FAM (from PCR primers); blunt
[4Fe-4S]-NsrR (ScNsrR) [5] = biological target: T1, [4Fe-4S]-NsrR (ScNsrR); experiment: EMSA; [4Fe-4S] cluster; essentially stoichiometric, no significant difference; EMSA: 10 mM Tris, 54 mM KCl, 0.3% glycerol, 1.32 mM GSH, pH 7.5, on ice, ~4 nM DNA, up to ~20-fold molar excess [4Fe-4S] NsrR. Crystal complex: 50 mM Tris pH 8.0, 500 mM NaCl, 5% glycerol, 20 C, anaerobic; grown in PEG, 30 mM MgCl2, 30 mM CaCl2, MOPS/HEPES pH 8.0; conditions: protein: recombinant; chain copies: 2; label: 6-FAM (from PCR primers); blunt

B1: [4Fe-4S]-NsrR from Streptomyces coelicolor (natural protein)
chain: MRLTKFTDLALRSLMRLAVVRDGDEPLATREVAEVVGVPYTHAAKAITRLQHLGVVEARRGRGGGLTLTDLGRRVSVGWLVRELEGEAEVVDCEGDNPCPLRGACRLRRALRDAQEAFYAALDPLTVTDLVAAPTGPVLLGLTDRPSG
notes: NsrR, NO-sensing Rrf2 family transcription factor of Streptomyces coelicolor; also called ScNsrR; [4Fe-4S]-ScNsrR
How did the “stoichiometry N” value [1] turn out when B1 was run?
The value was 2.

B2: hmpA1 operator 23 bp (dsDNA)
DNA 1: AACACGAATATCATCTACCAATT
DNA 2: AATTGGTAGATGATATTCGTGTT
Does B2 bind ([4Fe-4S]-NsrR (ScNsrR) [2])?
Result: binds

B3: Av003 wild type hmpA1 probe (dsDNA)
DNA 1: CTAAAACGACGGCCAGTCGGGATGACGGGCGGCGGCCCCCTGAGGCCGTCGAGCTGTGGCCTAAAACACGAATATCATCTACCAATTAAGGAGTCGCTGTGCTCTCCGAACAGTCCGTTCCCGTGGTCCGAGCCGTCATAGCTGTTTCCTG
DNA 2: CAGGAAACAGCTATGACGGCTCGGACCACGGGAACGGACTGTTCGGAGAGCACAGCGACTCCTTAATTGGTAGATGATATTCGTGTTTTAGGCCACAGCTCGACGGCCTCAGGGGGCCGCCGCCCGTCATCCCGACTGGCCGTCGTTTTAG
Does B3 bind ([4Fe-4S]-NsrR (ScNsrR) [3])?
Result: binds

B4: Av005 hmpXT2 probe (dsDNA)
DNA 1: CTAAAACGACGGCCAGTCGGGATGACGGGCGGCGGCCCCCTGAGGCCGTCGAGCTGTGGCCTAAAACACGAAAATCATTTACCAATTAAGGAGTCGCTGTGCTCTCCGAACAGTCCGTTCCCGTGGTCCGAGCCGTCATAGCTGTTTCCTG
DNA 2: CAGGAAACAGCTATGACGGCTCGGACCACGGGAACGGACTGTTCGGAGAGCACAGCGACTCCTTAATTGGTAAATGATTTTCGTGTTTTAGGCCACAGCTCGACGGCCTCAGGGGGCCGCCGCCCGTCATCCCGACTGGCCGTCGTTTTAG
Does B4 bind ([4Fe-4S]-NsrR (ScNsrR) [4])?
Result: binds

B5: Av006 hmpA/T probe (dsDNA)
DNA 1: CTAAAACGACGGCCAGTCGGGATGACGGGCGGCGGCCCCCTGAGGCCGTCGAGCTGTGGCCTAAAACACGAATATTATTTACCAATTAAGGAGTCGCTGTGCTCTCCGAACAGTCCGTTCCCGTGGTCCGAGCCGTCATAGCTGTTTCCTG
DNA 2: CAGGAAACAGCTATGACGGCTCGGACCACGGGAACGGACTGTTCGGAGAGCACAGCGACTCCTTAATTGGTAAATAATATTCGTGTTTTAGGCCACAGCTCGACGGCCTCAGGGGGCCGCCGCCCGTCATCCCGACTGGCCGTCGTTTTAG
Does B5 bind ([4Fe-4S]-NsrR (ScNsrR) [5])?
Result: binds

B6: Av007 hmpG/C probe (dsDNA)
DNA 1: CTAAAACGACGGCCAGTCGGGATGACGGGCGGCGGCCCCCTGAGGCCGTCGAGCTGTGGCCTAAAACACGAACGCCGCCTACCAATTAAGGAGTCGCTGTGCTCTCCGAACAGTCCGTTCCCGTGGTCCGAGCCGTCATAGCTGTTTCCTG
DNA 2: CAGGAAACAGCTATGACGGCTCGGACCACGGGAACGGACTGTTCGGAGAGCACAGCGACTCCTTAATTGGTAGGCGGCGTTCGTGTTTTAGGCCACAGCTCGACGGCCTCAGGGGGCCGCCGCCCGTCATCCCGACTGGCCGTCGTTTTAG
Does B6 bind ([4Fe-4S]-NsrR (ScNsrR) [5])?
Result: binds

B7: Av004 hmpXT1 probe (dsDNA)
DNA 1: CTAAAACGACGGCCAGTCGGGATGACGGGCGGCGGCCCCCTGAGGCCGTCGAGCTGTGGCCTAAAACACGAATAACTTCTACCAATTAAGGAGTCGCTGTGCTCTCCGAACAGTCCGTTCCCGTGGTCCGAGCCGTCATAGCTGTTTCCTG
DNA 2: CAGGAAACAGCTATGACGGCTCGGACCACGGGAACGGACTGTTCGGAGAGCACAGCGACTCCTTAATTGGTAGAAGTTATTCGTGTTTTAGGCCACAGCTCGACGGCCTCAGGGGGCCGCCGCCCGTCATCCCGACTGGCCGTCGTTTTAG
Does B7 bind ([4Fe-4S]-NsrR (ScNsrR) [4])?
Result: binds
